Consider one molecule from article PMC9871958 (Protein & Cell, 2022).

Assay [1] concerns the target T1, SARS-CoV-2 RBD protein (SARS-CoV-2, UniProt P0DTC2). As to the kind of experiment: SPR. Particulars: both partners purified.
For assay [2], the target named is T1, SARS-CoV-2 RBD protein. As to the kind of experiment: cell-based or functional assay.

B1: 1F (antibody, V domains shown)
VH: EVQLVESGPGLVKPSETLSLTCTVSGGSISSSSYYWGWIRQPPGKGLEWIGSIYYRGSTYYNPSLKSRVTISVDTSKNQFSLKLSSVTAADTAVYYCARHVRSAYYYGSGSYRDEGNWFDPWGQGTLVTVSS
VL: QSVLTQPPSVSGAPGQRVTISCTGTRSNIGAGHDVHWYQQLPGTAPKLLIYGNNNRPSGVPDRFSGAKSGTSASLAITGLQAEDEADYYCQSYDRTLTSYVFGTGTKVTVL
Take B1: the Kd – broadly, the equilibrium constant for the complex coming apart – with SARS-CoV-2 RBD protein [1] was 0.077 nM. Also, the “IC50 of neutralisation of authentic SARS-CoV-2 virus (1F blocks RBD-ACE2)” value with SARS-CoV-2 RBD protein [2] worked out at 0.018 µg/mL.
